Legend:
[1] = test system: secondary anti-LCMV CD8 cells; details: mouse, in vivo
NIH3T3 cells = experiment: Survival of NIH3T3 cells incubated with Naphazarin (ROS); type: cell-based; details: 16 hours; three clones vs GFP controls; FIG. 12B
Method: FIGS. 12A-B: Spi2A inhibits the lysosomal pathway of death in the absence of caspase activity. FIG. 12A: Cathepsin B activity in crude cytoplasmic extracts from cloned GFP or Spi2A-A NIH3T3 cells before (time=00 h) or after (time=8 h) treatment with TNF-α+Z-VAD.fmk (50 μM). FIG. 12B: Spi2A protects NIH3T3 cells from death due to reactive oxygen species. NIH3T3 fibroblasts from independent clones harboring control retrovirus (GFP clones #, 18, 12 and 2) or one expressing Spi2A (Spi2A clones# 6, 4 and 2) were incubated with Naphazarin—a known initiator of Reactive Oxygen Species (ROS). After 16 hours, the percentage of live cells was determined by flow cytometry as described in Liu et al. (2003).
Spi2A protects NIH3T3 cells from death due to reactive oxygen species. NIH3T3 fibroblasts from independent clones harboring control retrovirus (GFP clones #, 18, 12 and 2) or one expressing Spi2A (Spi2A clones# 6, 4 and 2) were incubated with Naphazarin—a known initiator of Reactive Oxygen Species (ROS). After 16 hours, the percentage of live cells was determined by flow cytometry as described in Liu et al., 2003.

Spi2A mRNA = details: mouse, in vivo
LCMV-specific CD8 cells = details: mouse, in vivo
[2] = test system: caspase-8, 9 and 3, and Bid; experiment: Death effector assays: caspase and Bid activation (western blots, enzyme assays), RelA^−/− MEFs; type: cell-based, mouse; details: TNF-α 0.2 ng/ml, CHX 0.1 μg/ml; FIG. 5A, 5B
Method: Death effector assays. Death effector pathways were induced in […] MEFs by treatment TNF-α (0.2 ng/ml) and CHX (0.1 μg/ml). Assays for executioner proteases (caspases and cathepsin B) were performed on crude cytoplasmic extracts (Stegh et al., 2000). Briefly, MEFs (10^6) were lysed in 10 mM Tris-Cl, pH 7.5, 100 mM NaCl, 1 mM EDTA, 0.01% Triton X-100 (50 μl) for 30 min on ice then centrifuged at 15,000 g for 30 min at 4° C. and the supernatant recovered. Protein concentration was determined by Lowry assay (DC-protein assay kit, Biorad). […]
Colorimetric assays for capases were performed in reaction buffer (50 mM HEPES, pH 7.4, 100 mM NaCl, 10 mM DTT, 1 mM EDTA, 10% glycerol, 0.1% CHAPS) at 37° C. on crude cytoplasmic extracts using p-Nitoaniline (pNA)-labeled substrates (Calbiochem) specific for caspases 3 and 7 (Ac-DEVD-pNA), caspase 8 (Ac-IETD-pNA), caspase 9 (Ac-LEHD-pNA), each at 0.2 mM. Specific activity was determined by subtracting the apparent activity detected after 1 h pre-incubation of extract with the pan-caspase inhibitor Z-VAD.fmk at 50 μM (ICN Biomedicals Inc), then normalizing for the amount of protein. […] Specific activity was determined by subtracting the apparent activity detected after 30 min pre-incubation of extract at 37° C. with the cathespin B inhibitor CA-074 Me at 30 μM (Peptide Institute) then normalizing for the amount of protein.

caspase 8 = molecular target: T1, caspase 8 (Homo sapiens, UniProt Q14790); experiment: Protease specificity of Spi2A: caspase 8; type: biochemical; details: FIG. 6B
T1 construct: purchased Calbiochem or Athens Research and Technology
Method: Protease specificity of Spi2A. RelA^−/− MEFs were transduced with retrovirus encoding Spi2A with a C-terminal 3×FLAG epitope tag and Spi2A-3×FLAG purified using a method described previously (Cooley et al., 1998). Briefly, cells (3×10^9) were lysed and Spi2A-3×FLAG (75 μg) purified by batch Q-Fast Flow ion-exchange chromatography (Pharmacia Biotech) after elution at 160-220 mM NaCl followed by anti-FLAG antibody columns, performed according to manufacturer's instructions (Sigma-Aldrich). Spi2A-3×FLAG was dialysed into PBS and stored as aliquots at −80° C. until needed.
Proteases were purchases from the manufacturers (Calbiochem or Athens Research and Technology) except granzymes A and B which were purified as described (Hanna et al., 1993) and cathespin V and K, which were purified as described (Bromme et al., 1999; Linnevers et al., 1997). Proteases (20 nM) were incubated in the appropriate assay buffer with Spi2A at 200 nM (at least 10-fold excess of inhibitor to maintain pseudo-first order conditions) for 1 h at 37° C. Control samples included only the enzyme, without the inhibitor. At the end of 1 h protease activity was assayed. […] Substrate hydrolysis was measured in a fluorescence microtiter plate reader (Spectramax Gemini XS, Molecular Devices). Percentage inhibition was calculated from the residual enzyme activity compared to no Spi2A controls. […]

T1 sequence (Q14790 217-374 limits assumed, species assumed): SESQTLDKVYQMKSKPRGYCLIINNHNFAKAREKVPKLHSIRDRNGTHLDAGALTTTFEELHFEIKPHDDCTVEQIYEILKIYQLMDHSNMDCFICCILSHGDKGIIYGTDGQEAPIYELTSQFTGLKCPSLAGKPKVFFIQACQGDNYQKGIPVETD
T1 sequence (Q14790 385-479 limits assumed, species assumed): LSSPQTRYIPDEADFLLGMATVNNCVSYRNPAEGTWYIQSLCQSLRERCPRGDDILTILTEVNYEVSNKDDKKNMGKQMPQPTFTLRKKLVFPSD

B1: Spi2A: murine Spi2A polypeptide, SEQ ID NO:2; purified as C-terminal 3×FLAG protein or expressed from MIGR1 retrovirus in cells and bone-marrow chimeras (protein, listed as Mus musculus)
chain: MAGVSPAVFGCPDVTLGRNTAVREVQENVTSVDSLTLVSSNTDFAFSLYRKLVLKNPDENVVFSPFSICTALALLSLGAKSNTLKEILEGLKFNLTETPEPDIHQGFRYLLDLLSQPGNQVQISTGSALFIEKHLQILAEFKEKARALYQAEAFTADFQQPLKATKLINDYVSNHTQGKIKELISGLKESTLMVLVNYIYFKGKWKNPFDPNDTFKSEFYLDEKRSVIVSMMKTGYLTTPYFRDEELSCTVVELKYTGNASAMFILPDQGRMQQVEASLQPETLRKWKNSLKPRMIHELRLPKFSISTDYSLEHILPELGIREVFSTHADLSAITGTKDLRVSQVVHKAVLDVAEKGTEAAAATGMAGVGCCAVFDFLEIFFNRPFLMIISDTKAHIALFMAKVTNPERSTNFPNGEGASSQRLESKRLCFGDPLCLIGQ
modifications: C-terminal 3xFLAG tag
notes: purified as C-terminal 3×FLAG protein or expressed from MIGR1 retrovirus in cells and bone-marrow chimeras
- Number of anti-LCMV CD8 cells per spleen GFP^− [1]: 45.94 ± 7.55 (n = 4) ×10^−5
- Percentages and absolute numbers of secondary anti-LCMV CD8 cells (recall response) [1]: significantly increased
- proportional change of anti-LCMV CD8 cells compared to the GFP control [1]: (417%)
- Survival (percentage of live cells) with Naphazarin (NIH3T3 cells): significantly increased survival
- Spi2A mRNA in GFP^+ CD8^+ spleen cells (Spi2A mRNA): significant increase
- Anti-LCMV CD8 cells as a percentage of the total GFP^+ CD8^+ cell population in PBLs (LCMV-specific CD8 cells): significantly elevated
- Level of anti-LCMV CD8 cells during the contraction phase (LCMV-specific CD8 cells): considerable increase
- Level of anti-LCMV CD8 cells during the initial expansion phase (LCMV-specific CD8 cells): did not increase
- Level of anti-LCMV CD8 cells during the memory phase (LCMV-specific CD8 cells): elevated level
- Residual level of anti-LCMV CD8 cells (level 56 days after infection as percentage of the maximum on day 14) (LCMV-specific CD8 cells): significantly (p<0.001) higher
- Residual level of anti-LCMV CD8 cells (level after 98 days as percentage of the maximum after 14 days) (LCMV-specific CD8 cells): significantly higher
- Time for which the elevated memory-phase level was stable (LCMV-specific CD8 cells): at least 14 weeks
- Activation of apical and executioner caspases and Bid [2]: suppressed
- Inhibition of protease by Spi2A (percentage inhibition) (caspase 8): did not extend to any of the caspases tested

Source: patent US20090324700A1, “METHODS AND COMPOSITIONS FOR THE INHIBITION OF CATHEPSINS” (priority 2003, published 2009)
